Biological target: TAG72 on the surface of human tumor cells (LS174T, OVCAR3, OV90, OVCAR8-sTn, patient ascites OAS4 and OAS7) (human)
Test: cell-based or functional assay

B1: TAG72-BBζ CAR (hTag72scFv-IgG4(HL-CH3)-CD4tm-41BB-Zeta), expressed on human T cells (other)
chain: QVQLVQSGAEVVKPGASVKISCKASGYTFTDHAIHWVKQNPGQRLEWIGYFSPGNDDFKYNERFKGKATLTADTSASTAYVELSSLRSEDTAVYFCTRSLNMAYWGQGTLVTVSSGSTSGGGSGGGSGGGGSSDIVMSQSPDSLAVSLGERVTLNCKSSQSLLYSGNQKNYLAWYQQKPGQSPKLLIYWASARESGVPDRFSGSGSGTDFTLTISSVQAEDVAVYYCQQYYSYPLTFGAGTKLELKESKYGPPCPPCPGGGSSGGGSGGQPREPQVYTLPPSQEEMTKNQVSLTCLVKGFYPSDIAVEWESNGQPENNYKTTPPVLDSDGSFFLYSRLTVDKSRWQEGNVFSCSVMHEALHNHYTQKSLSLSLGKMALIVLGGVAGLLLFIGLGIFFKRGRKKLLYIFKQPFMRPVQTTQEEDGCSCRFPEEEEGGCELGGGRVKFSRSADAPAYQQGQNQLYNELNLGRREEYDVLDKRRGRDPEMGGKPRRKNPQEGLYNELQKDKMAEAYSEIGMKGERRRGKGHDGLYQGLSTATKDTYDALHMQALPPR
tumor killing relative to Mock, LS174T cells, 24 hours: 59% | tumor killing relative to Mock, LS174T cells, 72 hours: 77% | tumor killing relative to Mock, OV90 cells, 24 hours: 67% | tumor killing relative to Mock, OV90 cells, 72 hours: 97% | tumor killing relative to Mock, OVCAR3 cells, 24 hours: 79% | tumor killing relative to Mock, OVCAR3 cells, 72 hours: 90%

— patent publication US20260146074A1 (CITY OF HOPE, published 2026)
